Measured values as given in PMC4632850 (Protein Science : A Publication of the Protein Society, 2015).

Key:
[1] = target: T1, phosphorylated neutral trehalase Nth1 (pNth1) (Saccharomyces cerevisiae, UniProt P32356 1-751, phosphorylated (sites not given)); experiment: SAXS
T1 sequence: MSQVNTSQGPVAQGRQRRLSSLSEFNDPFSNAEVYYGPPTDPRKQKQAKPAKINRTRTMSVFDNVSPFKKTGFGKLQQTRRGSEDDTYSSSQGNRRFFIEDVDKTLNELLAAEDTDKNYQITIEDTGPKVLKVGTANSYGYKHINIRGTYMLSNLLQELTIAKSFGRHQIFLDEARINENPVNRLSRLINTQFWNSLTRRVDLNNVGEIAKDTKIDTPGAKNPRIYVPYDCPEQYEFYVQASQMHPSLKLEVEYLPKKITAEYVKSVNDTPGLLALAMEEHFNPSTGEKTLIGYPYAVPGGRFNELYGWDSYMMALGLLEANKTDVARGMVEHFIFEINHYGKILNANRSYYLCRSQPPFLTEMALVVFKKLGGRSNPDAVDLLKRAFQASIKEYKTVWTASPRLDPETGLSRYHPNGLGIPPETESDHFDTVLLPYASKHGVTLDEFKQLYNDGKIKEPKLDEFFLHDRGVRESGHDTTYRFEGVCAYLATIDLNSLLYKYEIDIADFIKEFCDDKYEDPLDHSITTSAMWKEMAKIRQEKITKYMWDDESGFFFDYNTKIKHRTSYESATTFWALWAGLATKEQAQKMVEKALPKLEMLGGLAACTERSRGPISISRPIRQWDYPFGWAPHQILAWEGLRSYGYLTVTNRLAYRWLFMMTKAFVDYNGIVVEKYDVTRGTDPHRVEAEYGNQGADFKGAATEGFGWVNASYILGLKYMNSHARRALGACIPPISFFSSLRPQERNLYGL

[2] = target: the molecule itself
SEC = target: the molecule itself; experiment: SEC

B1: yeast 14-3-3 protein Bmh1 (natural protein)
chain: MSTSREDSVYLAKLAEQAERYEEMVENMKTVASSGQELSVEERNLLSVAYKNVIGARRASWRIVSSIEQKEESKEKSEHQVELICSYRSKIETELTKISDDILSVLDSHLIPSATTGESKVFYYKMKGDYHRYLAEFSSGDAREKATNASLEAYKTASEIATTELPPTHPIRLGLALNFSVFYYEIQNSPDKACHLAKQAFDDAIAELDTLSEESYKDSTLIMQLLRDNLTLWTSDMSESGQAEDQQQQQQHQQQQPPAAAEGEAPK
binding result [1]: binds

B2: DNA-binding domain of human FoxP1 (domain or fragment)
chain: AEVRPPFTYASLIRQAILESPEKQLTLNEIYNWFTRMFAYFRRNAATWKNAVRHNLSLHKCFVRVENVKGAVWTVDEVEFQKRRPQKISGNPSL
dH (dimer dissociation, van't Hoff) [2]: 23.1 kcal•mol‐1

B3: human HtrA3 lacking the N-terminal domain (enzyme)
chain: GLHQLSSPRYKFNFIADVVEKIAPAVVHIELFLRHPLFGRNVPLSSGSGFIMSEAGLIITNAHVVSSNSAAPGRQQLKVQLQNGDSYEATIKDIDKKSDIATIKIHPKKKLPVLLLGHSADLRPGEFVVAIGSPFALQNTVTTGIVSTAQREGRELGLRDSDMDYIQTDAIINYGNSGGPLVNLDGEVIGINTLKVTAGISFAIPSDRITRFLTEFQDKQIKDWKKRFIGIRMRTITPSLVDELKASNPDFPEVSSGIYVQEVAPNSPSQRGGIQDGDIIVKVNGRPLVDSSELQEAVLTESPLLLEVRRGNDDLLFSIAPEVVM
stoichiometry N (SEC): 3
